Patent publication US20100022402A1, “Methods and Compositions for the In Vitro High-Throughput Detection of Protein/Protein Interactions” (priority 2004, published 2010)
Residue numbers refer to the chain shown, from its start. Where no end group is shown, it is not given here.

T1: λD-Acid display phage (gpD fused to acidic aptamer [Gly-Glu]4) (bacteriophage lambda), P03712
T1 chain: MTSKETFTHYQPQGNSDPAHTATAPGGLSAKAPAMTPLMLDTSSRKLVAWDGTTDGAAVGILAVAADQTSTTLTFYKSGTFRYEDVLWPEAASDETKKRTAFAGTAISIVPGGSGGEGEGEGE

T2: λD-Base display phage (gpD fused to basic aptamer [Gly-Arg]4) (bacteriophage lambda), P03712
T2 chain: T1 chain with E117R, E119R, E121R, E123R


What was measured:
[1] = target: T1, λD-Acid display phage (gpD fused to …); experiment: competition: free peptide titrates λD-Acid:λD-Base co-infection (MOI 0.0025), loss of double resistant multilysogens
[2] = target: T1, λD-Acid display phage (gpD fused to …); experiment: apparent KD, calculated as the concentration of free peptide that results in an IC50 in the λD-Acid:λD-Base co-infection assay
[3] = target: T2, λD-Base display phage (gpD fused to …); experiment: competition: free peptide titrates λD-Acid:λD-Base co-infection (MOI 0.0025), loss of double resistant multilysogens
[4] = target: T2, λD-Base display phage (gpD fused to …); experiment: apparent KD, calculated as the concentration of free peptide that results in an IC50 in the λD-Acid:λD-Base co-infection assay

Row | Binder | IC50 [1] | Kd [2] | IC50 [3] | Kd [4]
1 | GRGRGRGR (not fully specified) [Basic Aptamer (free synthetic peptide [Gly-Arg]4)] | 10 nM | 10 nM | – | –
2 | GEGEGEGE (not fully specified) [Acidic Aptamer (free synthetic peptide [Gly-Glu]4)] | – | – | 10 nM | 10 nM
